Experiment [1] addresses T1, recombinant wild-type human PI31 (Proteasome Inhibitor of 31,000 daltons) (human, UniProt Q92530 1-271).
T1 sequence: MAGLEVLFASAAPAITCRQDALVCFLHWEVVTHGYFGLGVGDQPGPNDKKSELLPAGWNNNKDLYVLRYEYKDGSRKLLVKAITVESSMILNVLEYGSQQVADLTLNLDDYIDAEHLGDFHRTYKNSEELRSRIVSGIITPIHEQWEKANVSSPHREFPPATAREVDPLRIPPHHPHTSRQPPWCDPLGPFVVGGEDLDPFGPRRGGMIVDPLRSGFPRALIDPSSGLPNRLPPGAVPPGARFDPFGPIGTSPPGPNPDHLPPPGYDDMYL
Description: cryo-EM structure.

In experiment [2] the target is T2, His-PI31 wild-type (human) (human), Q92530.
T2 chain: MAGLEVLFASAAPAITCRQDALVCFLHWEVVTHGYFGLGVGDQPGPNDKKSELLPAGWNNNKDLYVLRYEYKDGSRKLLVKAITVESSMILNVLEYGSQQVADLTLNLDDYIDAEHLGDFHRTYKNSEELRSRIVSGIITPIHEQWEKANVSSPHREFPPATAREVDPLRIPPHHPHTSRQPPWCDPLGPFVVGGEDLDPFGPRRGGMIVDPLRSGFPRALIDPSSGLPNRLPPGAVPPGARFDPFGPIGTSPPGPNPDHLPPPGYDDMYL
Put plainly: mass photometry. The note with it: remark: other sources report otherwise.

By stoichiometry N is commonly meant a count of units in the complex or per binding partner.

B1: β2 subunit of the bovine 20S proteasome (natural protein)
chain: TTIAGVVYKDGIVLGADTRATEGMVVADKNCSKIHFISPNIYCCGAGTAADTDMTTQLISSNLELHSLSTGRLPRVVTANRMLKQMLFRYQGYIGAALVLGGVDVTGPHLYSIYPHGSTDKLPYVTMGSGSLAAMAVFEDKFRPDMEEEEAKKLVSEAIAAGIFNDLGSGSNIDLCVISKSKLDFLRPYSVPNKKGTRFGRYRCEKGTNAVLTEKVTTLEIEVLEETVQTMDTS
As for B1, the binding result in experiment [1] is listed as “binds”.

B2: His-PI31 wild-type (human), Q92530 1-271 (natural protein)
chain: MAGLEVLFASAAPAITCRQDALVCFLHWEVVTHGYFGLGVGDQPGPNDKKSELLPAGWNNNKDLYVLRYEYKDGSRKLLVKAITVESSMILNVLEYGSQQVADLTLNLDDYIDAEHLGDFHRTYKNSEELRSRIVSGIITPIHEQWEKANVSSPHREFPPATAREVDPLRIPPHHPHTSRQPPWCDPLGPFVVGGEDLDPFGPRRGGMIVDPLRSGFPRALIDPSSGLPNRLPPGAVPPGARFDPFGPIGTSPPGPNPDHLPPPGYDDMYL
Molecule B2 showed a stoichiometry N in experiment [2] of 2.

B3: β5 subunit of the bovine 20S proteasome (natural protein)
chain: TTTLAFKFRHGVIVAADSRATAGAYIASQTVKKVIEINPYLLGTMAGGAADCSFWERLLARQCRIYELRNKERISVAAASKLLANMVYQYKGMGLSMGTMICGWDKRGPGLYYVDSEGNRISGATFSVGSGSVYAYGVMDRGYSYDLEVEEAYDLARRAIYQATYRDAYSGGSVSLYHVREDGWIRVSSDNVADLHDKYSGSTH
Take B3: in experiment [1], the binding result is “binds”.

These data come from doi:10.1101/2023.04.03.535455 (bioRxiv, 2023).
